Test results reported in the supplement of paper PMC7877785.
± gives the uncertainty stated by the source.

Assay: self-splicing fitness, log relative to wild type (ln ratio); higher = more splicing; Tetrahymena group I intron in knt gene, E. coli kanamycin selection, DiMSum; sequences stand for … in CUCUCU…GGAGGGAAAAGUUAUCAGGCAUGCACCUGGUAGCUAGUCUUUAAACCAAUAGAUUGCAUCGGUUUAAAAGGCAAGACCGUCAAAUUGCGGGAAAGGGGUCAACAGCCGUUCAGUACCAAGUCUCAGGGGAAACUUUGAGAUGGCCUUGCAAAGGGUAUGGUAAUAAGCUGACGGACAUGGUCCUAACCACGCAGCCAAGUCCUAAGUCAACAGAUCUUCUGUUGAUAUGGAUGCAGUUCACAGACUAAAUGUCGGUCGGGGAAGAUGUAUUCUUCUCAUAAGAUAUAGUCGGACCUCUCCUUAAUGGGAGCUAGCGGAUGAAGUGAUGCAACACUGGAGCCGCUGGGAACUAAUUUGUAUGCGAAAGUAUAUUGAUUAGUUUUGGAGUACUCGUGGUCG
In short: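 Colonies from six replicate transformations of E. coli BL21(DE3) were pooled and amplicon-sequenced on an Illumina HiSeq 2500. The library placed an intron with all eight P1ex-region nucleotides randomised inside the knt kanamycin-resistance gene on pET-22b(+), and cells grew overnight at 37°C or 30°C on LB agar with or without 25 μg/mL kanamycin (plus 100 μg/mL carbenicillin, 50 μM IPTG, 0.2% rhamnose). Fitness is the DiMSum error-weighted combination of wild-type-normalised replicate fold changes, kanamycin versus none.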

Sequence | self-splicing fitness (ln) (37 °C) | self-splicing fitness (ln) (30 °C)
ACGGAGCAAUAUUACGACAA | -1.73 ± 0.45 | 
ACACAGCAAUAUUACGUCAA | -1.99 ± 0.14 | -2.25 ± 0.19
ACCCAGCAAUAUUACGCUCA | -0.324 ± 0.087 | -0.397 ± 0.065
GUUGAGCAAUAUUACGGUAC | -1.79 ± 0.38 | -3.45 ± 0.34
GCCUAGCAAUAUUACGGCGC | 0.263 ± 0.18 | -0.67 ± 0.14
CCCGAGCAAUAUUACGAAUC |  | -1.59 ± 0.16
UUACAGCAAUAUUACGGGGA | -0.871 ± 0.089 | -0.473 ± 0.076
GUUUAGCAAUAUUACGGAGU | -1.63 ± 0.12 | -2.3 ± 0.13
AGCCAGCAAUAUUACGCUAG | -2.81 ± 0.25 | -2.97 ± 0.25
ACCGAGCAAUAUUACGAACU | -0.803 ± 0.14 | -2.13 ± 0.13
UGAAAGCAAUAUUACGACCC |  | -1.44 ± 0.31
UUAUAGCAAUAUUACGCAGU | -1.61 ± 0.33 | 
CCCCAGCAAUAUUACGAUCU | -3.06 ± 0.22 | -3.24 ± 0.13
UAGCAGCAAUAUUACGCUGA | -1.71 ± 0.18 | -2.19 ± 0.15
GGGCAGCAAUAUUACGUCGC | -1.54 ± 0.14 | -1.69 ± 0.1
AGGUAGCAAUAUUACGAUUC | -0.359 ± 0.034 | -1.1 ± 0.015
GACCAGCAAUAUUACGUAUA | -0.251 ± 0.079 | -1.06 ± 0.059
UGGAAGCAAUAUUACGCGAC |  | -2.77 ± 0.37
CUGAAGCAAUAUUACGCUGG | -2.3 ± 0.34 | -3.37 ± 0.33
AGUUAGCAAUAUUACGCGUA | -0.709 ± 0.15 | -1.77 ± 0.22

Sequence | self-splicing fitness (ln) (37 °C) | self-splicing fitness (ln) (30 °C)
AAGUAGCAAUAUUACGCUGG | -0.92 ± 0.12 | -2 ± 0.12
UGACAGCAAUAUUACGUAGA | -1.14 ± 0.11 | -2.29 ± 0.085
GUCGAGCAAUAUUACGUAUA | -1.63 ± 0.18 | -3.54 ± 0.25
UUUAAGCAAUAUUACGCGUA | -0.828 ± 0.13 | -1.4 ± 0.14
AGGUAGCAAUAUUACGGCAU | 0.107 ± 0.033 | -0.129 ± 0.014
UACCAGCAAUAUUACGACUU | -0.301 ± 0.056 | -0.799 ± 0.046
ACAGAGCAAUAUUACGGAUG | -3.37 ± 0.37 | -4.02 ± 0.31
GCGAAGCAAUAUUACGUUAG | -2.35 ± 0.15 | -2.77 ± 0.12
UCGGAGCAAUAUUACGUAAG | -1.39 ± 0.42 | -2.77 ± 0.46
GGACAGCAAUAUUACGAUAA | -0.876 ± 0.08 | -1.81 ± 0.073
CAGGAGCAAUAUUACGAUGU | -2.91 ± 0.17 | -4 ± 0.21
UGGCAGCAAUAUUACGAGAC | -1.09 ± 0.45 | -3.74 ± 0.48
UCGAAGCAAUAUUACGAUGC | -1.92 ± 0.18 | -2.65 ± 0.15
ACAUAGCAAUAUUACGCACC | 0.273 ± 0.18 | -1.83 ± 0.18
UGCUAGCAAUAUUACGCUCA | 0.646 ± 0.16 | -0.263 ± 0.15
CCAUAGCAAUAUUACGUUUG | -0.897 ± 0.1 | -1.68 ± 0.1
AGAGAGCAAUAUUACGUAUU | -3.1 ± 0.3 | -4.03 ± 0.35
UCCCAGCAAUAUUACGCCCG | -2.65 ± 0.31 | -3.3 ± 0.21
UCAUAGCAAUAUUACGAUAA | -0.636 ± 0.19 | -1.71 ± 0.21
